Publication doi:10.1101/2025.02.21.639368

Target: H1 NC99 HA trimer (full-length trimeric ectodomain of H1N1 A/New Caledonia/20/1999 hemagglutinin) (influenza A virus H1N1 A/New Caledonia/20/1999)
Experiment: cryo-EM structure; HA NC99 and Fab mixed at a molar ratio of 1:1.5 (HA protomer:Fab), 5 min at room temperature; graphene grids, 0.01 mg/ml

Which stoichiometry N does the source give for “H1 NC99 HA trimer (full-length trimeric ectodomain of H1N1 A/New Caledonia/20/1999 hemagglutinin) (natural protein)” here?
Its stoichiometry N is 3.
